{"source": "paper PMC7737734", "key": {"[1]": {"molecular_target": "ZIKV full-length envelope protein E with A264C, as displayed on virus-like particles (VLP-cvD) (Zika virus (strain PE243))", "assay": "non-reducing SDS-PAGE and Western blot of a disulfide-linked dimer; purified VLPs on SDS-PAGE under reducing (DTT) or nonreducing conditions, E detected with the monoclonal antibody DIII-1B"}, "[2]": {"molecular_target": "ZIKV soluble envelope protein E, covalently stabilized dimer (sE-cvD), A264C, V5-tagged (Zika virus (strain ArD158095))", "assay": "non-reducing SDS-PAGE of a disulfide-linked dimer; purified sE proteins on 10% SDS-PAGE under reducing (DTT) and nonreducing conditions, gel stained with InstantBlue"}}, "data": [{"substance": "ZIKV full-length envelope protein E with A264C, as displayed on virus-like particles (VLP-cvD) (natural protein)", "values": [{"measurement": "stoichiometry N", "setting": "[1]", "value": 2}]}, {"substance": "ZIKV soluble envelope protein E, covalently stabilized dimer (sE-cvD), A264C, V5-tagged (domain or fragment)", "values": [{"measurement": "stoichiometry N", "setting": "[2]", "value": 2}]}]}
